Results published in the DeepSol protein solubility set.

Assay: soluble on expression in E. coli; label from the status in PepcDB or PDB records

Sequence | soluble on expression in E. coli
MKITLIIPTYNAGSIWPNVLDAIKQQTIYPDKLIVIDSGSKDETVLLASDLKNISIFNIDSKDFNHGGTRNLAVTKTLDADVIIFLTQDAILADSDAIKNLVYYFSDPLIAAVCGRQLPHKDANPLAVHARNFNYSSKSIVKSKADIEKFGIKTVFMSNSFAAYRRSVFEELSGFPEHTILAEDMFMAAKMIQAGYKVAYCAEAVVRHSHNYTPREEFQRYFDTGVFHACSPWIQRDLGGAGGEGFRFVKSEIQFLLKNAPFWIPRALLTTFAKFLGYKLGKHWQSLPLSTCRYFSMYKSYWNNIQYSSSKEIKLEHHHHHH | not soluble
MKIVKAEVFVTCPGRNFVTLKITTEDGITGLGDATLNGRELSVASYLQDHLCPRLIGRDAHRIEDIWQFFYKGAYWRRGPVTMSAISAVDMALWDIKAKAANMPLYQLLGGASREGVMVYCHTTGHSIDEALDDYARHQELGFKAIRVQCGIPGMKTTYGMSKGKGLAYEPATKGQWPEEQLWSTEKYLDFMPKLFDAVRNKFGFNEHLLHDMHHRLTPIEAARFGKSIEDYRMFWMEDPTPAENQECFRLIRQHTVTPIAVGEVFNSIWDCKQLIEEQLIDYIRTTLTHAGGITGMRRIADFASLYQVRTGSHGPSDLSPVCMAAALHFDLWVPNFGVQEYMGYSEQMLEVFPHNWTFDNGYMHPGDKPGLGIEFDEKLAAKYPYEPAYLPVARLEDGTLWNR | not soluble
MKIVRASRDQSAPVYGPRAGSQCMSNCFTFLHTCYLMGIDPVLDTTSLDAVLDSGARLDAIADEKVKRQALTDHPYRLGTEIPTVIETPAGITGHALSRPFNGTAETQDLGGYKCLGILDFLTYARGKPLPVYIIVTVGVHTRGVIVARGATYVFDPHTTDLSAEAAVYVCDDFTEAISALSFFTEMIGDFYYDAVLVYFTRCRTTLISPSELLVQIMDQYKDPDIDASVMS | soluble
MKKEEGLTENTGLPRKLLEKHDPWPAYVTYTSQTVKRLIEKSKTRELECMRALEERPWASRQNKPSSVIQPKRRKSSKSSGKAVFRDTLSESTLSMWGAYSVLAMAPTMIPEPTHLHADSRDCPTENYNKIIFARKPMMRMLPTVRY | not soluble
MKKGVLFDLDGTILDFEKSEDQALKRTFLKYGIPLTEDQVFLYREINRKWWKLLAEGKVSKDVVVVARFEEFLKTLNIPLDPRKVAKDYLEFLSEEAHFLPGAEEFLERLKKKDLRMAVVTNGVRFVQEKRSRKLKLDRFFEFVLTSEEAGVEKPDPRIFWLALERMKLKKEEVLYVGDDFSSDLEGARNAGIDFVLFSSDGDSSGDFPVARNFKELEKIVEEFL | soluble
MKKIAIFGSRHKSEQGASIKALILKLEEAGTPLYIERKFLSFLKQDLDFHPAICGVIDTLPEHIDYVICMGGDGTFLRTAHQIGVSQIPVLGVNTGRLGFLTDVDCHEASELITRLLDGDFTIETRSLLEVTEDNGSSPSYALNEAAILKRETGSMIRVNACLNDDYLAAYDADGLVVATPSGSTAYSLSGNGPIIMPACRNFVLTPIAPHSLNMRPLVVPDDTVIRLEVDSRSRNYLLVLDGRTRTLPCDTSILLKRAPHTLRMIRLRPHSFAETLRRKLMWGAAVRLEHHHHHH | soluble
MKKIATATIATAGFATIAIASGNQAHASEQDNYGYNPNDPTSYSYTYTIDAQGNYHYTWKGNWHPSQLNQDNGYYSYYYYNGYNNYNYNNYNNGYSYNNYSRYNNYSNNNQSYNYNNYNSYNTNSYRTGGLGASYSTSSNNVQVTTTMAPSSNGRSISSGYTSGRNLYTSGQCTYYVFDRVGGKIGSTWGNASNWANAAARAGYTVNNTPKAGAIMQTTQGAYGHVAYVESVNSNGSVRVSEMNYGYGPGVVTSRTISASQAAGYNFIHLEHHHHHH | not soluble
MKKIKKAIIPAAGLGTRFLPATKAMPKEMLPILDKPTIQYIVEEAARAGIEDIIIVTGRHKRAIEDHFDSQKELEMVLKEKGKSELLEKVQYSTELANIFYVRQKEQKGLGHAISSARQFIGNEPFAVLLGDDIVESEVPAVKQLIDVYEETGHSVIGVQEVPEADTHRYGIIDPLTKNGRQYEVKKFVEKPAQGTAPSNLAIMGRYVLTPEIFDYLKTQKEGAGNEIQLTDAIERMNNDNQVYAYDFEGERYDVGEKLGFVKTTIEYALKDDSMREELTRFIKALGL | not soluble
MKKILALLVIAPLLVSCSGNKNQVENEVFVKDTNGFEILMGQFAHNIENIWGLKEVLIAGPKDYVKYTDQYQTRSHINFDAGTITIETIATTNPAAHLRQAIITTLLMGDDPGSIDLYSDVNDIQISKEPFLYGQVLDNNGEPIRWEWRAAHFADYLLQNKMQTRTSGLHVISFVTIQLVPNHLDKRAHKYLPLVRKSAARYGVEESLILAIMQTESSFNPYAVSRSDALGLMQVVQHTAGKDVFKLKGKSGQPSRSYLFDPENNIDAGTAYLSILQNTYLGGIQNATSRRYAVITSYNGGAGSVLRVFHSDKNKAVGIINTMSPGDVFQTLTTKHPSGESRRYLVKVNSAQKNYRRY | not soluble
MKKILVGIPNYNNAAYIVDTIESVLKQSYSGVDVVVFDNASTDDSVEIIENTFLNNPNVLLKKSASNVGPTMNHNRCLEYAIDNEYDYLKVLSSDDVLLPNIIQEQFELLESEPRGAFATCNMIVTDDKLTKIKDHDFLGSNTDGNAVIKKCASHSANYIGGPSNGLLRVSCIGATRFSPEYKWLSDLKFYCDLLANRPFINTGTNGFFYRRHDNTDSSHVSKIKNLQRKESIRFSGEYGGNFLTKIKIYLRDIKSRLLLEHHHHHH | not soluble
MKKILVLGGAHIDRRGMIETETAPGASNPGSWMEEAGGGGFNAARNLSRLGFEVRIIAPRGGDVTGEVVAEAARQAGVEDTPFTFLDRRTPSYTAILERDGNLVIALADMDLYKLFTPRRLKVRAVREAIIASDFLLCDANLPEDTLTALGLIARACEKPLAAIAISPAKAVKLKAALGDIDILFMNEAEARALTGETAENVRDWPNILRKAGLSGGVVTRGASEVVAFNGTEKAILHPPLIREVKDVTGAGDAMASGYLAAIAEGKTIREALRQGAAAAAITVQSSFATSQDLSKDSVEAMLGLVPQAEMLA | soluble
MKKKIESYQGAAGGWGAVKSVANAVRKQMDIRQDVIAMFDMNKPEGFDCPGCAWPDPKHSASFDICENGAKAIAWEVTDKQVNASFFAENTVQSLLTWGDHELEAAGRLTQPLKYDAVSDCYKPLSWQQAFDEIGARLQSYSDPNQVEFYTSGRTSNEAAFLYQLFAREYGSNNFPDCSNMCHEPTSVGLAASIGVGKGTVLLEDFEKCDLVICIGHNPGTNHPRMLTSLRALVKRGAKMIAINPLQERGLERFTAPQNPFEMLTNSETQLASAYYNVRIGGDMALLKGMMRLLIERDDAASAAGRPSLLDDEFIQTHTVGFDELRRDVLNSEWKDIERISGLSQTQIAELADAYAAAERTIICYGMGITQHEHGTQNVQQLVNLLLMKGNIGKPGAGICPLRGHSNVQGDRTVGITEKPSAEFLARLGERYGFTPPHAPGHAAIASMQAICTGQARALICMGGNFALAMPDREASAVPLTQLDLAVHVATKLNRSHLLTARHSYILPVLGRSEIDMQKNGAQAVTVEDSMSMIHASRGVLKPAGVMLKSECAVVAGIAQAALPQSVVAWEYLVEDYDRIRNDIEAVLPEFADYNQRIRHPGGFHLINAAAERRWMTPSGKANFITSKGLLEDPSSAFNSKLVMATVRSHDQYNTTIYGMDDRYRGVFGQRDVVFMSAKQAKICRVKNGERVNLIALTPDGKRSSRRMDRLKVVIYPMADRSLVTYFPESNHMLTLDNHDPLSGIPGYKSIPVELEPSN | not soluble
MKKLFALLFISMISGMIMAQIPEVSGTIVFKKDGQPVVGALVSVLGTDISTITDVDGRFTLKEIPEKAQRIRVKYIGMQPKDVKIRPIMNVTLDLEKKLAFFIQAGVGVSGYNLENNNEDIYGGNNHLYIQGGVGLNYNFSTYFSLQPSVNVVAKGCKNMGRRGSDGQGEITVDPVYLEIPVLIAARFIISDFGRLIFNAGPYAAIGIAGKGKYTDEWEGTSMKFDLFSGDEAVLKRFDAGVQAGFAYEIKHIGFSYTFGYGLLKPFKEWNKEWGATPHNISHNFGLKYIF | not soluble
MKKLFNQVLVAAGVLALLAGCASEEENVIMAPLPIVKSEFTPKTLWSASVGDGVGHYFSKLAPDYAYDKVFVASRDGVVKALDPQNGKVIWTTDLEIEGSARLSGGITAAFGKLFIGSENGVVNALDAETGEPLWASAIEGEVLAAPAADNNIVIVNTSRGALIALNQEDGAQKWTISTEVPNLTLRGDSRPTAVAGGVFWGTPSGRLAAAIAERGQLIWQQPVGQPKGATEIDRLVDVDASPLVIGGTLFTVGFNGQLIAIDLRSGQPIWKRNYSSATDMATDGSRLYLVTDKDHLVAVDTRSGTELWSNTQLEHRLLTAPKMIDDYLVVGDAEGYLHWIDRNSGEFIAQQLVNDSGFAVGPLALNDGYVIVTRNGQIKKLTIQQ | not soluble
MKKPELTATSVEKFLIEKFDSVSDLMQLSEGEESRAFSFDVGGRGYVLRVNSCADGFYKDRYVYRHFASAALPIPEVLDIGEFSESLTYCISRRAQGVTLQDLPETELPAVLQPVAEAMDAIAAADLSQTSGFGPFGPQGIGQYTTWRDFICAIADPHVYHWQTVMDDTVSASVAQALDELMLWAEDCPEVRHLVHADFGSNNVLTDNGRITAVIDWSEAMFGDSQYEVANIFFWRPWLACMEQQTRYFERRHPELAGSPRLRAYMLRIGLDQLYQSLVDGNFDDAAWAQGRCDAIVRSGAGTVGRTQIARRSAAVWTDGCVEVLADSGNRRPSTRPRAKE | soluble
MKKTLLAIVAVSALSACRQAEEGPPPLPRQISDRSVGHYCSMNLTEHNGPKAQIFLNGKPDQPVWFSTIKQMFGYTKLPEEPKGIRVIYVTDMGNVTDWTNPNADTEWMDAKKAFYVIDSGFIGGMGAEDALPFGNKEQAEKFAKDKGGKVVGFDDMPDTYIFK | not soluble
MKKTQRKEIENVTNITGVRQIELWRRDDLQHPRLDEVAEEVPVALVYNGISHVVMMASPKDLEYFALGFSLSEGIIESPRDIFGMDVVPSCNGLEVQIELSSRRFMGLKERRRALAGRTGCGVCGVEQLNDIGKPVQPLPFTQTFDLNKLDDALRHLNDFQPVGRLTGCTHAAAWMLPSGELVGGHEDVGRHVALDKLLGRRSQEGESWQQGAVLVSSRASYEMVQKSAMCGVEILFAVSAATTLAVEVAERCNLTLVGFCKPGRATVYTHPQRLSN | not soluble
MKKVILFMAGILASMMLNAQSRWSVTPEAGLVVNKENEGTSVTLGFKAGAGVLYQLKEGVGKKPSFGLKSGVYILMQKGGYHPMSWGNISTGGGFSMDYEKTNVESTRYYLQLPVMAHWGFKLCDDVRLKLAVGPYVAVGIGGRTNAYVSSSKYNIDEETGVGQYEYRNDYYRFGTFKGKTVNEEFGFEASPRLDWGGTASVGIAVKRISFTVGYDLAWGKYNKEQNDLRIRNHMVSFTSGYSF | not soluble
MKKWMAGLFLAAAVLLCLMVPQQIQGASSYDKVLYFPLSRYPETGSHIRDAIAEGHPDICTIDRDGADKRREESLKGIPTKPGYDRDEWPMAVCEEGGAGADVRYVTPSDNRGAGSWVGNQMSSYPDGTRVLFIVQLEHHHHHH | soluble
MKKYTLIATAPMGIEAVVAKEVRDLGYECKVDNGKVIFEGDALAICRANLWLRTADRIKVQVASFKAKTFDELFEKTKAINWRSFIPENGKFPVIGKSVKSTLASVPDCQRIVKKAIVEKLKLQSGKANDWIEETGAEYKVEISLLKDQALITLDSSGTGLHKRGYRVDQGGAPIKETLAAALVQLTNWTPDRPFVDPFCGSGTIAIEAALIGQNIAPGFNRDFVSEDWEWIGKDLWNKARLEVEEKANYDQPLTIFASDIDHRMVQIAKENAEEAGLGDLIQFKQMQVKDFTTNLEFGVIVGNPPYGERLGEKKAVEQMYKEMGQAFEPLDTWSVYMLTSNENFEEAYGRKATKKRKLFNGFIKTDYYQYWSKVRPQRKKTENA | not soluble
